T1: MtrE of M. mazei (subunit of the MtrA-MtrH complex), from whole cell extract (Methanosarcina mazei)
T1 sequence (P80651 whole entry, looked up): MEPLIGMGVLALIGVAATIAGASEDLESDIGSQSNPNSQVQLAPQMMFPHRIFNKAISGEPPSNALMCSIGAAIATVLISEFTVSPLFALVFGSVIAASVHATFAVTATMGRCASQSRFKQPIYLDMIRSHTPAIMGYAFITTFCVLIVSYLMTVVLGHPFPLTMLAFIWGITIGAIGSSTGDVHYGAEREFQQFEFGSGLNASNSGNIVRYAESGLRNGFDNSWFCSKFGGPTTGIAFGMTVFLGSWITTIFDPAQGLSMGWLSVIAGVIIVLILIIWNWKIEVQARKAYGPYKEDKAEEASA

T2: MtrB of M. mazei (subunit of the MtrA-MtrH complex), from whole cell extract (Methanosarcina mazei)
T2 sequence (P80655 whole entry, looked up): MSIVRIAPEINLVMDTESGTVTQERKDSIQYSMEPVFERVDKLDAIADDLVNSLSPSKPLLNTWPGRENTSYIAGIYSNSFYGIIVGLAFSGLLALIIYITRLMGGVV

T3: MtrH of M. mazei (subunit of the MtrA-MtrH complex), from whole cell extract (Methanosarcina mazei)
T3 sequence (P80650 1-316, looked up): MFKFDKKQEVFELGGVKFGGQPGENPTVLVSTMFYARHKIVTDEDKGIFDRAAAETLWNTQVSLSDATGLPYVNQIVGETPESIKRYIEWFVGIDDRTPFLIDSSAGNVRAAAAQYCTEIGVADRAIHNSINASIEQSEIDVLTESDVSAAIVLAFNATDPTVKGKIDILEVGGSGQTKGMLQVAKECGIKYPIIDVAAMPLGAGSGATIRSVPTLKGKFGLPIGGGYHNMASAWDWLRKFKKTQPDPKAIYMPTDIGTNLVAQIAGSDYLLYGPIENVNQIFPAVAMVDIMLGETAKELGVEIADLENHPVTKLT

T4: MtrG of M. mazei (subunit of the MtrA-MtrH complex), from whole cell extract (Methanosarcina mazei)
T4 sequence (P80656 whole entry, looked up): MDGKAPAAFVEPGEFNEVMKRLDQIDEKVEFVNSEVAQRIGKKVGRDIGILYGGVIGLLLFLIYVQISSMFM

T5: MtrF of M. mazei (subunit of the MtrA-MtrH complex), from whole cell extract (Methanosarcina mazei)
T5 sequence (P80654 whole entry, looked up): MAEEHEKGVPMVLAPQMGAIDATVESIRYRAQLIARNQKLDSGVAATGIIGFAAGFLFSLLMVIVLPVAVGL


Columns and labels:
[1] = target: T1, MtrE of M. mazei (subunit of the …); experiment: pulldown from M. mazei whole cell extract with Myc-tagged Adriase, LC-MS/MS (Experiment 2.2)
[2] = target: T2, MtrB of M. mazei (subunit of the …); experiment: as above
[3] = target: T3, MtrH of M. mazei (subunit of the …); experiment: as above
[4] = target: T4, MtrG of M. mazei (subunit of the …); experiment: as above
[5] = target: T1, MtrE of M. mazei (subunit of the …); experiment: pulldown from M. mazei whole cell extract with HA-tagged Adriase, LC-MS/MS (Experiment 2.3)
[6] = target: T2, MtrB of M. mazei (subunit of the …); experiment: as above
[7] = target: T5, MtrF of M. mazei (subunit of the …); experiment: as above
[8] = target: T3, MtrH of M. mazei (subunit of the …); experiment: as above
[9] = target: T4, MtrG of M. mazei (subunit of the …); experiment: as above

| Intensity (mass spectrometry) [1] [arbitrary units] | Intensity (mass spectrometry) [2] [arbitrary units] | Intensity (mass spectrometry) [3] [arbitrary units] | Intensity (mass spectrometry) [4] [arbitrary units] | Intensity (mass spectrometry) [5] [arbitrary units] | Intensity (mass spectrometry) [6] [arbitrary units] | Intensity (mass spectrometry) [7] [arbitrary units] | Intensity (mass spectrometry) [8] [arbitrary units] | Intensity (mass spectrometry) [9] [arbitrary units] | Binder |
| --- | --- | --- | --- | --- | --- | --- | --- | --- | --- |
| 2.2e+06 | 3.2e+06 | 6.5e+07 | 1.2e+06 | – | – | – | – | – | M. mazei Adriase with C-terminal Myc-tag (enzyme, also called MM_2909) TLVIAFIGKNGAVMAGDMREITFEGEKPDREKLEKELYSGSIVTDEEMQKKAEEFGVKITVADCKEKVSERNGVLVGEVSSAEGGVVKKRRLYASAGNFAIAELINTEMTLTSQGKGSNFIAFGNEFTKQVANKCFKDNWTKKSNLQDAVKILILCMETVARKTASVSKQFMIVQTASNADVLKVVEKDRNCGSEQKLISEEDL |
| – | – | – | – | 3.8e+06 | 6.2e+06 | 430000 | 2e+08 | 1.5e+07 | M. mazei Adriase with C-terminal HA-tag (enzyme, also called MM_2909) TLVIAFIGKNGAVMAGDMREITFEGEKPDREKLEKELYSGSIVTDEEMQKKAEEFGVKITVADCKEKVSERNGVLVGEVSSAEGGVVKKRRLYASAGNFAIAELINTEMTLTSQGKGSNFIAFGNEFTKQVANKCFKDNWTKKSNLQDAVKILILCMETVARKTASVSKQFMIVQTASNADVLKVVEKDRNCGSYPYDVPDYA |

Reference: patent US20260275319A1 (MAX PLANCK GESELLSCHAFT ZUR F RDERUNG DER WISSENSCHAFTEN E V, published 2026)
